Measured values published in US20200325187A1 (Genentech, published 2020).
Where two headings read alike, the source gives them in different places.

Key:
[1] = biological target: T1, hVEGF-A (8-109) (human), P15692; test: spot phage ELISA; details: remark: other sources report otherwise
T1 chain: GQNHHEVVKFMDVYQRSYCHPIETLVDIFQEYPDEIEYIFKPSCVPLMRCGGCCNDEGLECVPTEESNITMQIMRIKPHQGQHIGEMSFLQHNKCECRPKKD

hVEGF-A [2] = biological target: T2, hVEGF-A (human, UniProt P15692-4 27-191, limits assumed); test: cell-based or functional assay
hVEGF-A [3] = biological target: T2, hVEGF-A; test: phage competition ELISA, soluble CKP
hVEGF-A [4] = biological target: T2, hVEGF-A; test: phage competition ELISA, soluble CKP; remark: listed apart in the source
hVEGF-A (8-109) [5] = biological target: T3, hVEGF-A (8-109) (human, UniProt P15692 214-315); test: spot phage ELISA
T3 sequence (looked up): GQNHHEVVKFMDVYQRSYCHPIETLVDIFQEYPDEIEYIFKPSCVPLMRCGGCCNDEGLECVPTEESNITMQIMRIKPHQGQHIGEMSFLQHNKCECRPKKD
Method in brief: (§1)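 Phage clones from four selection rounds were grown overnight at 37 °C with M13-KO7 helper phage. Bound phage was detected with anti-M13-HRP and TMB, with binding to BSA alone run in parallel as background.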

hVEGF-A [6] = biological target: T2, hVEGF-A; test: SPR
Description: (§2) Depending on the format of the assay either a streptavidin sensor (SA) or a dextran-coated (CM5) sensor was utilized as described below.
(§3) Reaction was then quenched by addition of 10 molar excess of Glycine pH 8.0 and the sample was buffer exchanged into PBS using an Amicon 0.5 mL 3000 MWCO ultra-centrifugal filters (EMD Millipore). The biotinylation state of the protein was verified by LC-MS analysis. Biotinylated VEGF-A was then captured on the surface until a resonance unit (RU) signal of about ˜400. For immobilization of VEGF-A on CM5 sensor, the surface was first activated with a mixture of N-ethyl-N′-(3-dimethylaminopropyl)carbodiimide hydrochloride and N-hydroxysuccinimide (EDC/NHS) according to the supplier instructions. VEGF-A was then diluted into coupling buffer (0.1 M Acetate Buffer, pH 5.0) and injected until the signal reached about ˜400 RU followed by a wash with 1 M ethanolamine pH 8.0 to quench remaining activated sites.

hVEGF-A [7] = biological target: T2, hVEGF-A; test: KDR-VEGF competition ELISA
hVEGF-A (8-109) [8] = biological target: T3, hVEGF-A (8-109); test: spot phage ELISA; remark: listed apart in the source
Method in brief: as §1

hVEGF-A [9] = biological target: T2, hVEGF-A; test: cell-based or functional assay; remark: listed apart in the source
hVEGF-A (8-109) [10] = biological target: T3, hVEGF-A (8-109); test: spot phage ELISA; remark: listed apart in the source
Description: After four rounds of binding selection, individual phage clones were picked and inoculated into 450 μl 2YT media containing 50 µg/ml Carbenecillin and M13-KO7 helper phage in 96-well blocks, which were grown at 37° C. overnight. […] The plates were washed and bound phage was detected with anti-M13-HRP followed by TMB substrate. In these assays, phage binding to BSA alone was tested in parallel to assess background binding. […] Positive clones were subjected to DNA sequence analysis.

hVEGF-A (8-109) [11] = biological target: T3, hVEGF-A (8-109); test: SPR
Description: as §2, §3

mouse VEGF-A 164 = biological target: T4, mouse VEGF-A 164 (mouse, UniProt Q00731-2 27-190); test: SPR
T4 construct: also called mouse 164
T4 sequence (looked up): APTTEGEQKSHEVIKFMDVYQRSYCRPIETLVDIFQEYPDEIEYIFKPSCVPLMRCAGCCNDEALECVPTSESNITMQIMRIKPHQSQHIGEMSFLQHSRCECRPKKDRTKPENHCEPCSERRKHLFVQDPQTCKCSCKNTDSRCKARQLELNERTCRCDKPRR
Description: as §2, §3

rat VEGF-A = biological target: T5, rat VEGF-A (rat, UniProt P16612-2 27-190, limits assumed); test: SPR
T5 construct: also called rVEGF
T5 sequence (looked up): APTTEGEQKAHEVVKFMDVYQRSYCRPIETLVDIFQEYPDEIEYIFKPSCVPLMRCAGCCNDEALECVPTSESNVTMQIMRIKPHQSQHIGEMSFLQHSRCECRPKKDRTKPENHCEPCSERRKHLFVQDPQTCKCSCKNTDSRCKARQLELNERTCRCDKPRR
Description: as §2, §3

rabbit VEGF-A = biological target: T6, rabbit VEGF-A (rabbit, UniProt G1T1L9 1-398); test: SPR
T6 sequence: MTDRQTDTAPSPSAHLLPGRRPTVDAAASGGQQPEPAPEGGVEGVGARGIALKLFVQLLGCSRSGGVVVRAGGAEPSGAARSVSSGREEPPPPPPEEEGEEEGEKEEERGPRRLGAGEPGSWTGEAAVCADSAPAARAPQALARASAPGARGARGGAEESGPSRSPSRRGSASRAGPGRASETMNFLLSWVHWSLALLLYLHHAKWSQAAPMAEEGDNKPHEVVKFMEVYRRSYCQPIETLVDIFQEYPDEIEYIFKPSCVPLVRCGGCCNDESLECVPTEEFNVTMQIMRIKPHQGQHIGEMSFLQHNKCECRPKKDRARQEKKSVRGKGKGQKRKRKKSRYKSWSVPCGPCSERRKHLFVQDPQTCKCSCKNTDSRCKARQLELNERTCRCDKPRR
Description: as §2, §3

human VEGF-A 165 = human VEGF-A 165 (human, UniProt P15692-4 27-191); test: SPR
Sequence of human VEGF-A 165 (P15692 other isoform, or with tags, fused parts or gaps limits assumed): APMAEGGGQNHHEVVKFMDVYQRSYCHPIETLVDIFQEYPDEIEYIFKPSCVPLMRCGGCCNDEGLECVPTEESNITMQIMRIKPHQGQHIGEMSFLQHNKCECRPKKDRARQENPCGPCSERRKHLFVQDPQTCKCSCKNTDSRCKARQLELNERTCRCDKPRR
Description: as §2, §3

hVEGF-A [12] = biological target: T2, hVEGF-A; test: SPR; remark: listed apart in the source
Description: as §2, §3

hVEGF-A K48A = biological target: T7, hVEGF-A K48A (human, UniProt P15692-4 34-135, K48A); test: SPR
T7 construct: position probably counted on the mature protein
T7 sequence (looked up): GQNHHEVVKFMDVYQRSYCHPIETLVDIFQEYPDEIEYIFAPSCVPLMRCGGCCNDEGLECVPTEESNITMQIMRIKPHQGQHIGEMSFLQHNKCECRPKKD
Description: as §2, §3

hVEGF-A Y21A = biological target: T8, hVEGF-A Y21A (human, UniProt P15692-4 34-135, Y21A); test: SPR
T8 construct: position probably counted on the mature protein
T8 sequence (looked up): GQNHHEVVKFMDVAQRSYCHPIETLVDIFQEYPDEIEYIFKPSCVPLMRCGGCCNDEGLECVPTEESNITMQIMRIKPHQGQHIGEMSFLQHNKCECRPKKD
Description: as §2, §3

hVEGF-A Q89A = biological target: T9, hVEGF-A Q89A (human, UniProt P15692-4 34-135, Q89A); test: SPR
T9 construct: position probably counted on the mature protein
T9 sequence (looked up): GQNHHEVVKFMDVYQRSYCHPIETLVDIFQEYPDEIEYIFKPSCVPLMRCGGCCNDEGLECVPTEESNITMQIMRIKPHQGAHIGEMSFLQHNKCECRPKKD
Description: as §2, §3

hVEGF-A [13] = biological target: T2, hVEGF-A; test: cell-based or functional assay; remark: listed apart in the source
hVEGF-A (8-109) [14] = biological target: T3, hVEGF-A (8-109); test: phage competition ELISA (clone on phage; the concentration varied on the axis is that of hVEGF (8-109))
hVEGF-A [15] = biological target: T2, hVEGF-A; test: cell-based or functional assay; remark: listed apart in the source
LRP6 E1E2 protein = biological target: T10, LRP6 E1E2 protein (human, UniProt O75581 20-630, limits assumed); test: spot phage ELISA
T10 construct: domain: E1E2
T10 sequence (looked up): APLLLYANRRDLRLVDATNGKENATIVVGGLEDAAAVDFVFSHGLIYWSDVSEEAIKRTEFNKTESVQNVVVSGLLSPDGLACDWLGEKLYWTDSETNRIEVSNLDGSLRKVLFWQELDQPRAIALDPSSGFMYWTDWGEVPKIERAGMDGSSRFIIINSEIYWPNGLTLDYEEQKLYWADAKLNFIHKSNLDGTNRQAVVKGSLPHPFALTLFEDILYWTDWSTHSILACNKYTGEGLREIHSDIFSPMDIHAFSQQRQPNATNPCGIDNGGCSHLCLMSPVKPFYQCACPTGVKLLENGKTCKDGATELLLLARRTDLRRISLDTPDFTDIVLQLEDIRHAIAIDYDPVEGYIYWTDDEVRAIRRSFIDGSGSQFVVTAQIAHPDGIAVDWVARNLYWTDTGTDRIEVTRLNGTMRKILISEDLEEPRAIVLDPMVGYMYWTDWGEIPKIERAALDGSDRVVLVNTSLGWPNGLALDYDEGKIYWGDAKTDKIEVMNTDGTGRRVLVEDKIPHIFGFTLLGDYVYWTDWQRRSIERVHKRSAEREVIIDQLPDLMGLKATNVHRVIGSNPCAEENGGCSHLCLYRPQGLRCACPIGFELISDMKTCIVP

LRP6 [16] = biological target: T11, LRP6 (human, UniProt O75581 20-1613); test: cell-based or functional assay
LRP6 [17] = biological target: T11, LRP6; test: cell-based or functional assay; remark: listed apart in the source

GCQRTQPFWGCKQDSDCLAGCVCRWYQSCG (designed binder) [VEGF_CKP9.22]
ELISA [1]: 1.2 | S/N vs BSA [1]: 17.2

GCQLMQPFWGCKQDSDCLAGCVCHWYQSCG (designed binder, also called E9) [VEGF_CKP9]
Cellular IC50 (hVEGF-A [2]): 11700 nM | IC50 (hVEGF-A [3]): 1360 nM | IC50 (hVEGF-A [4]): 600 nM | ELISA (hVEGF-A (8-109) [5]): 3.3 | S/N vs BSA (hVEGF-A (8-109) [5]): 36 | Kd (hVEGF-A [6]): 5000 nM | IC50 (hVEGF-A [7]): 569 nM | ELISA (hVEGF-A (8-109) [8]): 0.4 | S/N vs BSA (hVEGF-A (8-109) [8]): 7.4 | Cellular IC50 (hVEGF-A [9]): 11.7 µM | ELISA (hVEGF-A (8-109) [10]): 0.4 | S/N vs BSA (hVEGF-A (8-109) [10]): 7.4

GCDVMQPYWGCGPDIDCLAGCVCHWYNSCG (designed binder, also called L2.9.63.12) [VEGF_CKP9.63.12]
Cellular IC50 (hVEGF-A [2]): 1.83 nM | Kd (hVEGF-A (8-109) [11]): 3.2 nM | Kd (mouse VEGF-A 164): 13.1 nM | Kd (rat VEGF-A): 5.74 nM | Kd (rabbit VEGF-A): 2.54 nM | Kd (human VEGF-A 165): 4.32 nM | ELISA (hVEGF-A (8-109) [5]): 2.6 | S/N vs BSA (hVEGF-A (8-109) [5]): 39.9 | IC50 (hVEGF-A [7]): 0.7 nM | Kd (hVEGF-A [12]): 1.07 nM | Kd (hVEGF-A K48A): 0.33 nM | Kd (hVEGF-A Y21A): 9.84 nM | Kd (hVEGF-A Q89A): 36.5 nM | Cellular IC50 (hVEGF-A [13]): 1.83 nM | FOLD [..] [..] TO VARIANT 9.54.90 (hVEGF-A [13]): 0.74 fold

GCNIMLPFWGCKQDSDCLAGCVCQYYQSCG (designed binder, also called EM54) [VEGF_CKP9.54]
Cellular IC50 (hVEGF-A [2]): 188 nM | IC50 (read off the curve) (hVEGF-A (8-109) [14]): ~4 nM | Kd (hVEGF-A (8-109) [11]): 176 nM | kon (hVEGF-A (8-109) [11]): 1.26e+06 M⁻¹ s⁻¹ | Kd (mouse VEGF-A 164): 250 nM | Kd (rat VEGF-A): 176 nM | Kd (rabbit VEGF-A): 133 nM | Kd (human VEGF-A 165): 190 nM | IC50 (hVEGF-A [3]): 450 nM | Kd (hVEGF-A [6]): 44 nM | IC50 (hVEGF-A [7]): 5.8 nM | ELISA (hVEGF-A (8-109) [8]): 2.1 | S/N vs BSA (hVEGF-A (8-109) [8]): 28.4 | Kd (hVEGF-A [12]): 55 nM | Kd (hVEGF-A K48A): 22 nM | Kd (hVEGF-A Y21A): 317 nM | Kd (hVEGF-A Q89A): 1880 nM | Cellular IC50 (hVEGF-A [9]): 0.188 µM

GCNIMLPYWGCGRDFECLAGCVCQYYQSCG (designed binder) [VEGF_CKP9.54.90.F8Y]
Kd (hVEGF-A [6]): 0.4 nM | Cellular IC50 (hVEGF-A [15]): 1.58 nM | FOLD [..] [..] TO VARIANT 9.54.90 (hVEGF-A [15]): 0.85 fold

GCRNSIKRCKQNSDCLAGCVCSVGHGCG (designed binder) [LRP6_CKP6]
ELISA (LRP6 E1E2 protein): 3.1 | S/N vs BSA (LRP6 E1E2 protein): 37.4 | Best Fit IC50 (nM) for Wnt1 (5 ng/well), luciferase reporter, fraction F1 (LRP6 [16]): 22900 nM | Best Fit IC50 (nM) for Wnt1 (5 ng/well), luciferase reporter, fraction F2 (LRP6 [16]): 23800 nM | Best Fit IC50 (nM) for Wnt1 (5 ng/well), luciferase reporter, fraction F3 (LRP6 [16]): 4620 nM | Best Fit IC50 (nM) for Wnt3a (25 ng/well), luciferase reporter, fraction F1 (LRP6 [17]): 350000 nM | Best Fit IC50 (nM) for Wnt3a (25 ng/well), luciferase reporter, fraction F2 (LRP6 [17]): 276000 nM

GCSNRVKVRACKQDSDCLAGCVCGPNGFCG (designed binder) [LRP6_CKP19]
ELISA (LRP6 E1E2 protein): 3.27 | S/N vs BSA (LRP6 E1E2 protein): 42 | Best Fit IC50 (nM) for Wnt1 (5 ng/well), luciferase reporter, fraction F1 (LRP6 [16]): 23100 nM | Best Fit IC50 (nM) for Wnt1 (5 ng/well), luciferase reporter, fraction F2 (LRP6 [16]): 49300 nM | Best Fit IC50 (nM) for Wnt3a (25 ng/well), luciferase reporter, fraction F1 (LRP6 [17]): 59300 nM | Best Fit IC50 (nM) for Wnt3a (25 ng/well), luciferase reporter, fraction F2 (LRP6 [17]): 69800 nM
